B1: human VAT-1 (full-length, 1–393 residues) (natural protein, UniProt Q99536 1-393, looked up)
chain: MSDEREVAEAATGEDASSPPPKTEAASDPQHPAASEGAAAAAASPPLLRCLVLTGFGGYDKVKLQSRPAAPPAPGPGQLTLRLRACGLNFADLMARQGLYDRLPPLPVTPGMEGAGVVIAVGEGVSDRKAGDRVMVLNRSGMWQEEVTVPSVQTFLIPEAMTFEEAAALLVNYITAYMVLFDFGNLQPGHSVLVHMAAGGVGMAAVQLCRTVENVTVFGTASASKHEALKENGVTHPIDYHTTDYVDEIKKISPKGVDIVMDPLGGSDTAKGYNLLKPMGKVVTYGMANLLTGPKRNLMALARTWWNQFSVTALQLLQANRAVCGFHLGYLDGEVELVSGVVARLLALYNQGHIKPHIDSVWPFEKVADAMKQMQEKKNVGKVLLVPGPEKEN
notes: Written as the protomer; dimer at low concentration, tetramer at 300 µM by SEC; also called vesicle amine transport protein-1; source: E. coli Rosetta 2 (DE3), purified (Glutathione Sepharose, HRV 3C cleavage, HiTrap SP, Superdex 200); not shown: GST, N-terminal, cleaved
B2: N-truncated human VAT-1 (43–393 residues) (domain or fragment, UniProt Q99536 43-393, looked up)
chain: ASPPLLRCLVLTGFGGYDKVKLQSRPAAPPAPGPGQLTLRLRACGLNFADLMARQGLYDRLPPLPVTPGMEGAGVVIAVGEGVSDRKAGDRVMVLNRSGMWQEEVTVPSVQTFLIPEAMTFEEAAALLVNYITAYMVLFDFGNLQPGHSVLVHMAAGGVGMAAVQLCRTVENVTVFGTASASKHEALKENGVTHPIDYHTTDYVDEIKKISPKGVDIVMDPLGGSDTAKGYNLLKPMGKVVTYGMANLLTGPKRNLMALARTWWNQFSVTALQLLQANRAVCGFHLGYLDGEVELVSGVVARLLALYNQGHIKPHIDSVWPFEKVADAMKQMQEKKNVGKVLLVPGPEKEN
notes: Written as the protomer; homodimer in both crystal forms, dimer to tetramer (dimer-dimer) in solution by SEC; also called vesicle amine transport protein-1; source: E. coli Rosetta 2 (DE3), purified (Glutathione Sepharose, HRV 3C cleavage, HiTrap SP, Superdex 200); not shown: GST, N-terminal, cleaved

Assays:
[1] = target: the molecule itself; experiment: SEC; Superdex 200 (10/30), 10 mM Tris–HCl pH 7.2, 100 mM NaCl, 0.5 mM TCEP, 8 °C; higher concentrations (loaded at 300 µM, no NADP); dimers to tetramer (dimer–dimer)
[2] = target: the molecule itself; experiment: SEC; Superdex 200 (10/30), 10 mM Tris–HCl pH 7.2, 100 mM NaCl, 0.5 mM TCEP, 8 °C; low concentration (samples loaded at 10, 20, 50 µM; also with 10-fold molar NADP); monomers to dimer
[3] = target: the molecule itself; experiment: crystal structure; free form of VAT-1 (43–393), 2.3 Å; crystals from 100 mM BisTris pH 6.0, 200 mM sodium nitrate, 22% PEG 3350, 20 °C

Row | Protein | stoichiometry N [1] | stoichiometry N [2] | stoichiometry N [3]
1 | B1 | 4 | 2 | –
2 | B2 | – | – | 2

Source: article PMC7822847, “Structural insights into vesicle amine transport-1 (VAT-1) as a member of the NADPH-dependent quinone oxidoreductase family” (Scientific Reports, 2021)
